Measurements from patent US11015206B2, “Compositions and methods comprising sequences having hydroxyphenylpyruvate dioxygenase (HPPD) activity” (PIONEER HI-BRED INTERNATIONAL, INC., priority 2014, dated 2021).
Changes are numbered by the printed parent chain. In names and notes the source's numbering stands. Blank lines part the entries; values can stand above or below the molecule they belong to.

Legend:
Assay type in all cases: biochemical, Z. mays
[1] = system: 4-hydroxyphenylpyruvate dioxygenase (HPPD); test: Insensitivity parameter (ON × OFF) and trait fitness (ON × OFF × kcat/KM or × kcat); details: for ON × OFF × kcat, Value / ON × OFF × kcat, Fold vs wt / ON × OFF, fold vs wt / ON × OFF (parameters with tembotrione): Table 5, tembotrione; for ON × OFF × kcat, Fold vs wt / ON × OFF, fold vs wt: fold vs maize wild type HPPD; for ON × OFF (parameters with tembotrione): insensitivity parameter
Outline: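 Trait fitness combines catalysis and insensitivity as kcat/KM × ON rate ratio × OFF rate ratio. The insensitivity parameter is the product of ON and OFF rate ratios, used in place of KD because the ON rate ratio is inverse.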

[2] = system: 4-hydroxyphenylpyruvate dioxygenase (HPPD); test: OFF rate ratio: release of inhibitor from pre-formed enzyme-inhibitor complex; details: Table 5; tembotrione
Outline: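 Inhibitor release from pre-formed complex (enzyme 7.2 μM, inhibitor 8 μM, 1 h RT) tracked as accelerating HPPD activity at 320 nm over 12 min, coupled via 50 nM HGD with 100 μM HPP at pH 7. OFF rate ratio: steady-state velocity relative to uninhibited initial velocity.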

[3] = system: 4-hydroxyphenylpyruvate dioxygenase (HPPD); test: ON rate ratio: HPPD reaction rate with vs without inhibitor in the 70 to 90 second interval; details: Table 5; tembotrione
Outline: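 Indicator of inhibitor on-rate: reaction velocity in the 70 to 90 second window with 4 μM inhibitor divided by that without. Reactions contained 100 μM HPP and 60 or 120 nM HPPD; slower binding gives a larger ratio.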

[4] = system: 4-hydroxyphenylpyruvate dioxygenase (HPPD); test: HPPD activity coupled assay with HGD; substrate saturation kinetic parameters (kcat, KM); details: Table 6; for kcat: single substitutions in SEQ ID NO:2
Description: Wild type and shuffled variant genes were cloned into pVER7062, a modified version of pET24a(+)(Novagen), which places six histidine residues at the N-terminus of the expressed protein. Vectors were electroporated into E. coli host strain BL21(DE3). Cells were grown at 30 C in rich medium such as 2×YT containing the selection antibiotic, kanamycin. At a density of about 0.6 OD600, IPTG was added to 0.2 mM, the temperature was reduced to 16 C and growth continued for another 24 hrs. Cells were harvested by centrifugation and stored at −80 C. Cell pellets were lysed in BPER (Pierce) protein extraction reagent containing 0.2 mg/ml lysozyme, 1 mM dithiothreitol, protease inhibitor cocktail (Sigma, bacterial cocktail) and endonuclease. Insoluble cellular debris was removed by centrifugation. HPPD protein was purified from the soluble protein solution by affinity chromatography on the nickel form of nitrilotriacetic acid (Ni-NTA) resin (Qiagen). Protein concentrations were determined by the Bradford method, as supplied by Bio-Rad.
HPPD catalyzes the conversion of 4-hydroxyphenylpyruvate (HPP) to homogentisate (FIG. 17). […] However, the product of the ensuing reaction in tyrosine metabolism, maleylacetoacetate, absorbs strongly at 320 nm. Furthermore, the enzyme catalyzing that reaction is also a dioxygenase having similar mechanism and buffer requirements as HPPD, making homogentisate dioxygenase (HGD) an ideal partner in a coupled assay, as shown.
The HDG gene from Pseudomonas aeruginosa (Amaya (2004) Arch Biochem Biophys 421, 135-142) was cloned into pVER7062 and electroporated into E. coli strain BL21(DE3). The enzyme was produced by methods similar to those described for HPPD. The purified enzyme has a KM for homogentisate of 23 μM and a kcat of 100/sec, properties highly suited for instantly converting the homogentisate produced by HPPD to maleylacetoacetate.
HPPD activity was measured by placing an aliquot (e.g., 6 μl) of the substrate HPP at 50-fold the desired final concentration into the wells of a low UV-absorbing assay plate. Reactions were started by adding a mixture (e.g., 294 μl) containing 25 mM Hepes, pH 7, 2 mM ascorbate, 10 μM FeSO4, 1 to 100 μM HPP, 50 nM HGD and 5 to 240 nM HPPD. Absorbance at 320 nm was monitored continuously in a plate-reading spectrophotometer (Spectramax, Molecular Devices).
The catalytic performance of wild-type HPPD and variants generated by shuffling was assessed by determining the substrate saturation kinetic parameters. The Michaelis-Menten kinetics protocol of the Spectramax software was customized for HPP concentrations ranging from 3.33 μM to 100 μM. Reaction rates were measured as described above for each concentration of HPP. The software returns values of KM and Vmax using the Lineweaver-Burke transformation of the Michaelis-Menten equation.

[5] = system: 4-hydroxyphenylpyruvate dioxygenase (HPPD); test: Estimate of kcat from initial rate at saturating hydroxyphenylpyruvate without inhibitor (ON rate ratio assay); details: Table 5; single substitutions in Round 7 variant 9070 (SEQ ID NO:2); estimate from initial rate at saturating hydroxyphenylpyruvate without inhibitor
Outline: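 kcat was estimated from the initial reaction rate with known enzyme level (60 or 120 nM HPPD). Hydroxyphenylpyruvate was at a saturating 100 μM, with no inhibitor present.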

[6] = DKN (diketonitrile form of isoxaflutole)
[7] = DKN (isoxaflutole diketonitrile)

- Insensitivity parameter, ON × OFF [1, 6]: 0.26
- Insensitivity parameter, ON × OFF ([1]; Mesotrione, Table 6): 0.52
- Insensitivity parameter, ON × OFF ([1]; Sulcotrione): 0.59
- ON × OFF, fold vs wt [1]: 25.7
- ON × OFF (parameters with tembotrione) [1]: 0.13
- Insensitivity parameter, ON × OFF ([1]; Tembotrione): 0.21
- Insensitivity parameter, ON × OFF ([1]; Topramezon): 0.29
- OFF ratio (parameters with tembotrione) [2]: 0.17
- ON ratio (parameters with tembotrione) [3]: 0.76
B1: 432K: single substitution A432K in SEQ ID NO:2 (protein)
chain: MGPTPTATAAGAAVAAASAAEQAAFRLVGHRNFVRFNPRSDRFQTLAFHHVELWCADAASAAGRFSFALGVPLAARSDLSTGNSAHASLLLRSGSLSLLFTAPYAHGADAATAALPSFSAAAARRFAADHGLAVRAVALRVADAEDAFRASVAAGARPAFGPVDLGRGFRLAEVELYGDVVLRYVSYPDGAAGEPFLPGFEGVASPGAADYGLSRFDHIVGNVPELAPAAAYMAGFTGFHEFAEFTTEDVGTTESGLNSMALANNSENVLLPLNEPVHGTKRRSQIQTFLDHHGGPGVQHIALASDDVLRTLREMRARSAMGGFEFLPPPLSDYYDGVRRCAGDVLTEAQINECQELGVMVDRDDQGVLLQIFTKPVGDRPTFFLEIIQRIGCMEKDEKGQEYQKGGCGGFGKGNFGQLFKSIEDYEKSLEKKQAAAAATAQGS
modifications: Zea mays variant form created by artificial means.
- ON × OFF × kcat/km fold vs Round 7, variant 9070 [1, 7]: 1.6
- ON × OFF × kcat/km fold vs Round 7, variant 9070 ([1]; Sulco (sulcotrione)): 1.5
- ON × OFF × kcat, Value [1]: 4.13
- ON × OFF × kcat, Fold vs wt [1]: 3.86
- ON × OFF × kcat/km fold vs Round 7, variant 9070 ([1]; Topra (topramezone)): 1.5
- ON × OFF × kcat/km fold vs Round 7, variant 9070 ([1]; meso (mesotrione)): 1.6
- ON × OFF × kcat/km fold vs Round 7, variant 9070 ([1]; tembo (tembotrione)): 1.4
- Km [4]: 2.08 µM
- kcat [4]: 1.12 s⁻¹
- kcat [5]: 0.525 s⁻¹

- Insensitivity parameter, ON × OFF [1, 6]: 0.21
- Insensitivity parameter, ON × OFF ([1]; Mesotrione, Table 6): 0.44
- Insensitivity parameter, ON × OFF ([1]; Sulcotrione): 0.53
- ON × OFF, fold vs wt [1]: 30.0
- ON × OFF (parameters with tembotrione) [1]: 0.15
- Insensitivity parameter, ON × OFF ([1]; Tembotrione): 0.16
- Insensitivity parameter, ON × OFF ([1]; Topramezon): 0.24
- OFF ratio (parameters with tembotrione) [2]: 0.21
- ON ratio (parameters with tembotrione) [3]: 0.75
B2: 356R: single substitution E356R in SEQ ID NO:2 (protein)
chain: B1 chain with E356R, K432A
modifications: Zea mays variant form created by artificial means.
- ON × OFF × kcat/km fold vs Round 7, variant 9070 [1, 7]: 1.1
- ON × OFF × kcat/km fold vs Round 7, variant 9070 ([1]; Sulco (sulcotrione)): 1.1
- ON × OFF × kcat, Value [1]: 5.97
- ON × OFF × kcat, Fold vs wt [1]: 5.58
- ON × OFF × kcat/km fold vs Round 7, variant 9070 ([1]; Topra (topramezone)): 1.1
- ON × OFF × kcat/km fold vs Round 7, variant 9070 ([1]; meso (mesotrione)): 1.1
- ON × OFF × kcat/km fold vs Round 7, variant 9070 ([1]; tembo (tembotrione)): 1.2
- Km [4]: 2.89 µM
- kcat [4]: 1.32 s⁻¹
- kcat [5]: 0.652 s⁻¹

- Insensitivity parameter, ON × OFF [1, 6]: 0.33
- Insensitivity parameter, ON × OFF ([1]; Mesotrione, Table 6): 0.48
- Insensitivity parameter, ON × OFF ([1]; Sulcotrione): 0.59
- ON × OFF, fold vs wt [1]: 27.9
- ON × OFF (parameters with tembotrione) [1]: 0.14
- Insensitivity parameter, ON × OFF ([1]; Tembotrione): 0.25
- Insensitivity parameter, ON × OFF ([1]; Topramezon): 0.32
- OFF ratio (parameters with tembotrione) [2]: 0.19
- ON ratio (parameters with tembotrione) [3]: 0.76
B3: 214N: single substitution S214N in SEQ ID NO:2 (protein)
chain: B1 chain with S214N, K432A
modifications: Zea mays variant form created by artificial means.
- ON × OFF × kcat/km fold vs Round 7, variant 9070 [1, 7]: 1.4
- ON × OFF × kcat/km fold vs Round 7, variant 9070 ([1]; Sulco (sulcotrione)): 1.1
- ON × OFF × kcat, Value [1]: 5.04
- ON × OFF × kcat, Fold vs wt [1]: 4.71
- ON × OFF × kcat/km fold vs Round 7, variant 9070 ([1]; Topra (topramezone)): 1.2
- ON × OFF × kcat/km fold vs Round 7, variant 9070 ([1]; meso (mesotrione)): 1.1
- ON × OFF × kcat/km fold vs Round 7, variant 9070 ([1]; tembo (tembotrione)): 1.3
- Km [4]: 3.62 µM
- kcat [4]: 1.41 s⁻¹
- kcat [5]: 0.59 s⁻¹
